The values that follow come from US6806079.

One assay addresses Rhesus-D antigen (human) (UniProt Q02161). As to the kind of experiment: phage bound to Rh-D positive red blood cells, eluted with citric acid, titred on ampicillin plates; titre prior to selection 1.0 × 10^8.
Assay [1] has as its target bovine thyroglobulin (Sigma) (bovine) (UniProt P01267). The experiment in a line: phage ELISA, 200 µg/ml thyroglobulin coating.
Assay [2] addresses T1, turkey egg-white lysozyme (turkey, UniProt P00703 19-147).
T1 construct: also called turkey egg lysozyme; turkey lysozyme
The experiment in a line: heading of the table of deduced sequences.

T1 sequence (P00703 19-147 limits assumed): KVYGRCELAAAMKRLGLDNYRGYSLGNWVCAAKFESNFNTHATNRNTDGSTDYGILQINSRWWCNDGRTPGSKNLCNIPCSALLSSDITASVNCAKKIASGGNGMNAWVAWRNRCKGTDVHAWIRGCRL
Chain of Rhesus-D antigen (human) (Q02161 2-417): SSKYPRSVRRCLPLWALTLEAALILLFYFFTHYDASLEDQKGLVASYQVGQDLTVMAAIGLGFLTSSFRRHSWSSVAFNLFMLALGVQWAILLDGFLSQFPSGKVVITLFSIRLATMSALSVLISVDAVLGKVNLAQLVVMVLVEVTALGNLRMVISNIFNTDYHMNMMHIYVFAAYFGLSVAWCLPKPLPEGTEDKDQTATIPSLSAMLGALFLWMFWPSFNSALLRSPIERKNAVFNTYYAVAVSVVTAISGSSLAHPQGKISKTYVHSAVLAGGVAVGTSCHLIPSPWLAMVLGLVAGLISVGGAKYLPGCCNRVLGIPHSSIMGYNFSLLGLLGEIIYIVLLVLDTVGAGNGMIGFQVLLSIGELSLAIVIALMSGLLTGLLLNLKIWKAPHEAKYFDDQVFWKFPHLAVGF
Chain of bovine thyroglobulin (Sigma) (bovine) (P01267 20-2769 limits assumed): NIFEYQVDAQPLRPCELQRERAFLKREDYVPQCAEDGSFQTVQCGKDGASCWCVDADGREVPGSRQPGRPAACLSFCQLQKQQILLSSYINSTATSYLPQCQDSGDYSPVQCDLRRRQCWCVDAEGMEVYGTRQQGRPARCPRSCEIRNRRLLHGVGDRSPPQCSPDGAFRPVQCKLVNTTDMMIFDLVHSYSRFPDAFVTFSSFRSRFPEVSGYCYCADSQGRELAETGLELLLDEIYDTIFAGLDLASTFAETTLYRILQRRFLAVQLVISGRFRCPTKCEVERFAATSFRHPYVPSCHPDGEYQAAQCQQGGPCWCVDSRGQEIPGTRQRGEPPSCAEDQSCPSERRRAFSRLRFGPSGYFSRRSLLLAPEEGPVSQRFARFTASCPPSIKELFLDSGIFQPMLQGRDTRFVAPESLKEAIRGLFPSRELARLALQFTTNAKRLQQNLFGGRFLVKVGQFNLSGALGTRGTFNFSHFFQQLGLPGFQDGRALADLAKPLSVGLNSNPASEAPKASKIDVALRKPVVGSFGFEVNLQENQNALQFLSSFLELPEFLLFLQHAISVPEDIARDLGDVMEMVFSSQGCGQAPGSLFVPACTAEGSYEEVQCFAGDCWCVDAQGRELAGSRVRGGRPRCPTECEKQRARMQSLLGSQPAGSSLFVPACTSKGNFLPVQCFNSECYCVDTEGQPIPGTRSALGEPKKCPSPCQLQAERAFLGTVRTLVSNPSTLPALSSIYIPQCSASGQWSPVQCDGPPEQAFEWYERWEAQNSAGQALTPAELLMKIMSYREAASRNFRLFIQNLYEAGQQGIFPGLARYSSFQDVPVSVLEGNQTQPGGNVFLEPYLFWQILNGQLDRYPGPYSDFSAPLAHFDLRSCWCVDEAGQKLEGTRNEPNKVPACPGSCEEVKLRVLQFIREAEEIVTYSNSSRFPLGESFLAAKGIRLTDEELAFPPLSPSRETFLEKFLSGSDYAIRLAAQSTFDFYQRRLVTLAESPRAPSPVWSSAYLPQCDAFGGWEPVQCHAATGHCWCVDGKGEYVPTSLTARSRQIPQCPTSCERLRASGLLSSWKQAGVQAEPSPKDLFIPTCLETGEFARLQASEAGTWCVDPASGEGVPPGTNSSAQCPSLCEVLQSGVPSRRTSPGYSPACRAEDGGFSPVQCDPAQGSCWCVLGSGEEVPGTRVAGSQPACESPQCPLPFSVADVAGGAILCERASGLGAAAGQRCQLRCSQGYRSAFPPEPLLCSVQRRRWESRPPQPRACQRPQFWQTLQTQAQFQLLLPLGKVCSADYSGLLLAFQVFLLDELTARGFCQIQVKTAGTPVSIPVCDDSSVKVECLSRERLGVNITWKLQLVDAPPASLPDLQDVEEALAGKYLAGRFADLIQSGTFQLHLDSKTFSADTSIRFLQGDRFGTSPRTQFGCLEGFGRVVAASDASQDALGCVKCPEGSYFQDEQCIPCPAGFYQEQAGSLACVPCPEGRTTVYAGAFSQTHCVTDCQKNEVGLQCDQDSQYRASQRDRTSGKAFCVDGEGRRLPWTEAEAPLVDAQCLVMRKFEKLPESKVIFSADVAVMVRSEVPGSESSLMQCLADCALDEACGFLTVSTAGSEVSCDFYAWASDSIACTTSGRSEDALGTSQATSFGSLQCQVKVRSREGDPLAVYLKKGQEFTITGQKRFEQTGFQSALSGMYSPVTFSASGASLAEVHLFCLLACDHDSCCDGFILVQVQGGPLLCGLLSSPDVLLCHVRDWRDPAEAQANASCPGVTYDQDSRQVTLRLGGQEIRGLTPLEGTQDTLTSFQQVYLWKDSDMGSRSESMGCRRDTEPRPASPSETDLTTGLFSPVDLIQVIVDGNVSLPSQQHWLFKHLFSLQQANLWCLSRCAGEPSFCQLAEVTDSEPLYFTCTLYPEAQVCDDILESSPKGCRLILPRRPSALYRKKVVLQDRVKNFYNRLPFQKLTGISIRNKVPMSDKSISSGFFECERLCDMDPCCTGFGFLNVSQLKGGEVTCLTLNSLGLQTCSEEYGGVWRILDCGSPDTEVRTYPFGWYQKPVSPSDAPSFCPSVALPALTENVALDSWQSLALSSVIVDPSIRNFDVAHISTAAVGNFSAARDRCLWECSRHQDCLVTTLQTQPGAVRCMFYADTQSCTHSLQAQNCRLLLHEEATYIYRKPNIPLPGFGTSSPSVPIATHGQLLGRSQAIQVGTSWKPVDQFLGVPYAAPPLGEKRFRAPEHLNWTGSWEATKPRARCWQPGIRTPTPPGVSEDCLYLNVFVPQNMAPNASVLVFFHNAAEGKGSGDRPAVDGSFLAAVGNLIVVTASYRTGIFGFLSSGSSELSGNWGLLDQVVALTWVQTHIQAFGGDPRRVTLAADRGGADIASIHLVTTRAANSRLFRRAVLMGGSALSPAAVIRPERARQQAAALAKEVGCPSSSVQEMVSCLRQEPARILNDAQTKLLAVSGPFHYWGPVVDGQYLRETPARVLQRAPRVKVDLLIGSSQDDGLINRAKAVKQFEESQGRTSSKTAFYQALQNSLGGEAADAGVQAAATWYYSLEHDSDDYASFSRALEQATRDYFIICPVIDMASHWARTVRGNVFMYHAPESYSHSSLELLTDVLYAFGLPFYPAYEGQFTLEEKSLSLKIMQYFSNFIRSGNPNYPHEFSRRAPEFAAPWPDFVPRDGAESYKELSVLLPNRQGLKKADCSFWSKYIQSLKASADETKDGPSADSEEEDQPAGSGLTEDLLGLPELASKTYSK

In the assay with Rhesus-D antigen (human), “Fog-B Fab fragment displayed on the surface of phage (pHEN1)” returned a titre of phage eluted after selection on Rh-D positive cells of 6e+06.

“phage control (vector pCAT3) (from UniProt P03661 19-424)”: the ELISA OD in assay [1] was determined as 0.07 O.D.

B1: Lysozyme binder VH14.1 / VL14.1 (scFv, V domains shown)
VH: QVQLQESGPGLVKPSETLSLVCTVSGGSLSFSYWGWIRQPPGKGLEWIGYISHRGTDYNSSLQSRVTISADTSKNQFSLKLSSVTAADTAVYYCARSFSNSFFFGYWGQGT
VL: SSELTQDPAVSVAFGQTVRITCQGDSLRSSYASWYQQKPGQAPLLVIYGENSRPSGIPDRFSGSSSGNTASLTITGAQAEDEADYYCNSRDSRGTHLEVFGG
notes: Human scFv in pHEN1 on phage; Paired by common number
In the case of B1, the binding result in assay [2] is reported as “binds”.
